{
  "source": "patent US20090291083A1",
  "about": "“BARB4 TARGET, ANTIBODY DESIGNATED BARB4, BARB4 RELATED ANTIBODIES, AND METHODS OF MAKING AND USING SAME” (PATRYS LIMITED, priority 2008, published 2009)",
  "molecules": {"B1": {"name": "BARB4: human IgG antibody produced by hybridoma DSMZ Deposit No. DSM ACC2876; heavy chain SEQ ID NOs:1, 3, 5, 7, light chain SEQ ID NO:9 (antibody, V domains shown)", "VH": "QVQLVESGGGVVQPGRSLRLSCAASGFRFTTHGMHWVRQAPGKGLEWVAVISYNGRNKYYADYVNGRFTISRDDSRDTVFLQMNSLRPEDTAMYYCAKVRGDGYGDYGYFDYWGHGTLVSVSS", "VL": "QSALTQPRSVSGSPGQSVTISCTGTYNYVSWYQQHPGKAPKLMIFDVSRRSSGVPDRFSGSKSGNTASLTISGLQAEDEADYYCCSYGGTYLYVFGTGTTVTVLGQ"}},
  "key": {"[1]": {"test_system": "MDA-MB-231", "test": "MTT cell proliferation assay (Table 2)", "assay_type": "cell-based, human", "conditions": "EC50", "protocol": "(§1) BARB4 was also evaluated for inhibition of proliferation of other cancer cell lines, including BxPC-3, COLO 205, H460, MDA-MB-231 and MIAPaCa-2 cells, as well as HT-29, HCT-116, BxPC-3, PANC-1, A549, PC-3 and HCT116 cells. In brief, various human cancer cell lines obtained from the American Type Culture Collection (ATCC) were established using standard in vitro culture methods and ATCC recommended media in 175 cm2 BD tissue culture treated flasks. In particular, MDAMB-231 cultures were incubated in a humidified 37° C., 100% air incubator, and BxPC-3, COLO 205, H460 and MIAPaCa-2 cultures were incubated in a humidified 37° C., 5% CO2, 95% air incubator. Cultures were sub-cultivated regularly to maintain log phase growth. All cell lines were brought up from cryopreservation using the original recommended ATCC media type and supplements. Cell line specific seeding densities were based on historical data from MIR Preclinical Services for growth over a 72 hr period.\nOn the day of IC50 plate seeding, the adherent cells were removed from the flasks for each cell line using trypsin EDTA, 1× (Cell Gro #25-053-CI). Trypsin was deactivated using complete media and the cells were pooled (each line done separately). The pooled cells in complete media were counted using trypan blue exclusion with a Neubauer Bright-Line® hemacytometer. The percent viability for each cell line was as follows:\nBased on live cell counts, each suspension was then diluted in complete media (containing required supplements) to achieve the desired seeding density for each cell line. Once seeded, the cells were allowed to attach to the plates overnight and then treated with BA4 or cisplatin 24 hr post-seeding.\nBARB4 was serially diluted 1:2 (2× final conc. in dilution reservoir=1600 μg/ml) in media to achieve a final 800 μg/ml starting concentration in the top dosage wells of the treatment plate by diluting 1:2 when transferred from the reservoir to the treatment plate. Antibody was added to columns 1 through 10 of the treatment plate. Column 11 was for cells+media only control and column 12 was for a media only blank. Cisplatin (positive control) was manufactured by Sigma (# M4394, lot 087K1349) and supplied as a fine, dark yellow powder, in an amber vial, stored at room temperature and housed in a covered box to prevent exposure to light. Cisplatin was previously dissolved in 0.9% saline to make a clear, colorless 4 mM stock solution, aliquoted and frozen at −20° C. Frozen aliquots were quickly thawed by holding the tubes in hand, placed on wet ice and diluted (2× conc. dilution reservoir) to achieve a final 1 mM starting concentration in the top dosage wells of the treatment plate (diluted 1:2 when transferred from the dilution reservoir to the treatment plate). Serial dilutions of 1:4 were made from wells 1 through 10 of the dilution reservoir prior to transfer to the treatment plate.\nThe BARB4 stock solution (10.5 mg/ml) was prepared by dilution in complete media according to the table below for a final starting treatment concentration of 800 μg/ml. The 4 mM stock solution of cisplatin in 0.9% saline was diluted in complete media for a final starting treatment concentration of 1 mM.\nCells were exposed to BARB4 or cisplatin for a 24 hr period. The plates were incubated overnight at 37° C. At 24 hr and 48 hr post-treatment, the MTT assay was performed as described below.\nThe anti-proliferative activity of BARB4 and cisplatin was evaluated using the MTT cell proliferation assay (ATCC catalog #30-1010K). The assay is based on the reduction of yellow tetrazolium MTT (3-(4,5-dimethylthiazolyl-2)-2,5-diphenyltetrazolium bromide) by metabolically active cells forming purple formazan crystals. […]"}, "[2]": {"test_system": "HT-29", "test": "MTT cell proliferation assay (Table 3)", "assay_type": "cell-based, human", "protocol": "as §1\nThe anti-proliferative activity of BARB4 and cisplatin was evaluated using the MTT cell proliferation assay (ATCC catalog #30-1010K). The assay is based on the reduction of yellow tetrazolium MTT (3-(4,5-dimethylthiazolyl-2)-2,5-diphenyltetrazolium bromide) by metabolically active cells forming purple formazan crystals. The purple formazan is solubilzed with detergent and quantified spectrophotometrically at 570 nm (MTT Cell Proliferation Assay, ATCC 30-1010K; Van de Loosdrecht, et al. J. Immunol. Methods 174:311 (1994): Ferrari, et al. J. Immunol. Methods 131:165 (1990); Gerlier, D., and N. Thomasset. J. Immunol. Methods 94:57 (1986); Alley, et al. Cancer Res. 48:589 (1988); and Mosmann, T. J. Immunol. Methods 65:55 (1983)). The MTT Cell Proliferation Assay Kit from ATCC contains ready to use MTT and detergent solutions.\nCells in the log phase of growth were seeded into 96-well culture plates in 0.1 mL of complete medium in all wells except column 12 which was reserved for media-only control (blank) and allowed to attach overnight at 37° C. Compounds were diluted in complete culture media and added to each well in a volume of […] for a final 1:2 dilution from the 2× dilution reservoir concentration. At 24 and 48 hr post-treatment, 100 μl of media was removed and 0.01 mL of MTT reagent was added to each well. The plates were returned to the incubator for four hours. Detergent reagent (0.1 mL) was then added and the plates incubated overnight at 37° C. in the dark to solubilize the formazan crystals. The absorbance at 570 nm was measured with a SpectraMAX® Plus plate reader (Molecular Devices Corporation) at 24 and 48 hr post-detergent addition. Absorbance values were converted to percent of control and then plotted against test agent concentrations for IC50 calculations using SoftMax® Pro v. 5.2 (Molecular Devices Corporation). Plots of percent of control vs. compound (BARB4 or cisplatin) concentration were analyzed using the 4 parameter equation to obtain IC50 values and other parameters that describe the sigmoidal curve along with an R2 value.\nUsing the same MTT assay as described for the BxPC-3, COLO 205, H460, MDA-MB-231 and MIAPaCa-2 cells, proliferation of HT-29, HCT-116, BxPC-3, PANC-1, A549, PC-3 and HCT116 cells was evaluated and IC50 (μg/ml) was calculated at 24, 48 and 72 hours. The cell culture protocol for passaging adherent cells used is substantially as described above for the BxPC-3, COLO 205, H460, MDA-MB-231, and MIAPaCa-2 cells. The following were the cell line propagation conditions:\nAtmosphere. 5% CO2, humidified Media Supplements Used: * FBS—Fetal Bovine Serum (Gibco 10082-147; lot #1354986), * PSG—Penicillin, Streptomycin, L-Glutamine Solution (CellGro 30-009-CI), * 0.1M Na Pyruvate (CellGro 25-000-CI), * 1.0M HEPES (CellGro 25-060-CI), AND * 45% Glucose (CellGro 25-037-CI). Seeding Densities* for IC50 Assays: A549 2.5×10^3; PC-3 6.0×10^3; HT-29 12×10^3; HCT-116 8.0×10^3; BxPC-3 12×10^3; and PANC-1 6.0×10^3 cells."}},
  "data": [
    {"molecule": "B1", "values": [
      {"measurement": "IC50, BA4 (24 hr)", "setting": "[1]; MTT 24 hr post-treatment", "value": 154, "unit": "µg/mL"},
      {"measurement": "IC50, BA4 (48 hr)", "setting": "[1]; MTT 48 hr post-treatment", "value": 193, "unit": "µg/mL"},
      {"measurement": "IC50 24 hours", "setting": "[2]; 24 hours", "value": 399.5, "unit": "µg/mL"},
      {"measurement": "IC50 48 hours", "setting": "[2]; 48 hours", "value": 300.1, "unit": "µg/mL"},
      {"measurement": "IC50 72 hours", "setting": "[2]; 72 hours", "value": 228.8, "unit": "µg/mL"}
    ]}
  ]
}
